Experimental data from the DeepSol protein solubility set.

Assay: soluble on expression in E. coli; label from the status in PepcDB or PDB records

Sequence | soluble on expression in E. coli
MAHHHHHHMKCVVCDADKAGYRCRACRSAYCSSQCYRKHRMSREEAAAQVANINAATSSFAHLCETVVAAQRPQKELDEKRQRTEAEADVFSDVSREKVAAAGAVHGSENDAPPPSTAPAVETAWKTATGASEASGPACAEPQPSARTEYAGDSDAVYILQEKHLGALAHDPRVRSALRSPSLQKLIKTIDSSRSRLDALEAAQYNNADFKGFCDAVLRVIAEVEGR | soluble
MAHHHHHHMKDIINSDFEDNKDERVIIVDENNEFQELKARKIMRMENLWHRSTSIFVFTKIGEEYFIYVHKRSKVKDYCPSYYSIGFGGVVSENEDMLGNAVKELEEESGIKKSPEQLFDLGVVKCDTECSRSFVGSYVSLTLGKPMPFDGVRPLRIFACSSGNFTLLLIPHAAFFRAVTPSPTGCLHRPRLPDHPPAE | soluble
MAHHHHHHMKGNKGANIAYPDKYHKVTEFFDREYGDLETCTKLNDCQKLLFYALRQQVEHGPCTSGAPFIWQVRERAKHDAWKQLGAMTKFEAMVHFVTHLEECIGGNVDWGEKLRDLNGMRDQQRVGVENGTGESNANEQTERGVSEAHWDADVQAHLQPSAENIEYLAREVMRLRGELQQVRPNRVVPTPIVVPPRKPIDYVSTKNIVPPARTLATVATRTALLNAQTTNNLVERQPQGWGEWFGLI | soluble
MAHHHHHHMKGTLAGYTRGLHGQTKQTALVRVENVNTREDATWYVGKRVCYVYHGKKVKRCVRWSKAPARRSTTRALWGRVTRPHGNAGMMRVKFNGASVPASAIGRRIRVYLYPSQI | soluble
MAHHHHHHMKNALFVNENMTILKIFYKDKLYMIKNKICGYQHDINENLVNNPHLLFLGRQEAWILILKCKEEAILQNCITATRYEEIRESEIERHDCVLGSLRK | not soluble
MAHHHHHHMKPVYRYAMNHEYNINSICPIAYSDQFATADDATVLLWCTEYPDTSIETHDMRSPYEDGPRETICAVRNFPHEPFLFFVATSGGSVRVVDTRQTLRWGDQAAQAFINPPREEDEPFSNVTNSICDCALSPSGRYIAGRDFMSICLWDIRMAGSGGARNAPATPRRQAPAARGGDGNPECSMVRRWALHPHLRDDLDTIYQSNLLFDKFDVQFLSSRQVCTGGFNNTLYTMDVEGTSADAASDIRTFQLLKTEGISEFRRTTVSAHRRGEDRISTGQGLGSRMTLMSRPYMSMSGACGMMVACGQAVLQLSYNGLSK | not soluble
MAHHHHHHMKRPWGESVGTQSNHTRTDGVQEPSASAELAASANDDTQVRSDGRNVRVRSSGSPRTIDTGNGGGSTVVSPQRQLSDQRLPQASSRHELLEGTSEFLLRTEGNIPCSFGNVPKDSIGYESQCCWNLYNNTGTTHYEPPWRTCLAVEKNRENPYYLPWLDSMKIPPLDELLSKVDERKSKAATSGDVDSGTNDSNVKDGSTKHAD | soluble
MAHHHHHHMKRSRFDGKAPSFAPAVTMHPQQQQRIEERGANNRVVVNSPYGCSRARYGWGMPFHTPLLAYVPGCPAIHIGISSLSGVPGRDRRMKTLFAQYAKKFNSLEHCYTFHNMGEETMWKNWRDMCASQLVASSSHSPASLGCVQTSDNGNQKSPPFIFSIKANQYLTHTRMLAIDDKSEEHIMHFFVNRCSILGRHLGPVLLQLPPQFQKNHVNMERIEAVAARIPKAFSVAVEFRHRSWYDEGVYALLRRLGWALVVAHHHDDPTASVHVDTGVDFMYVRLHGPIGLHIGDYGPVILSQWAERVVDYICGGVVSAAAADQSQPMAVNAHGREVYFFFNNSDSHVGGTTSSTVDATFLAQRVGELLAEKSRSCMVADSQSNSCSDVDVVTIISE | soluble
MAHHHHHHMKRTLSLGIEGSANKIGVGVVDQSGTVLSNVRETYITPPGSGFLPRETAIHHSQHVLQVVQRAMHDAAVTPADIDIISYTKGPGMGGPLSVGCTVAKTLSLLWGKPLVGVNHCVGHIEMGRVVTKSENPVVLYVSGGNTQVIAYADHRYRIFGETIDIAVGNCLDRVARLLNISNDPAPGYNIEQKAKKGKCYIRLPYTVKGMDMSFTGILSYIEQLVHHPQFSDSDVREMSKKRHKAAPSLTSMPVPPGETLNTDDICFSLQETIFAMLVEVTERAMSQIKTSDVLIVGGVGCNRRLQEMMQLMAAERGGRCFGMDQRYCIDNGCMIAYAGLLQYLSGSFTTMAEATVTQRFRTDEVYVTWRD | not soluble
MAHHHHHHMKVKKKIVKKINKNSNVKIYKSSKHVNEVNNNTLTNNNEVKQNNEYYESFFIPKNLTEFNFKDNDKQLYYLMSLLNEIHDIFYIMLEQFKRKETNDENRDDQIYNYFLRYPVVRTILTQYRKQVLKGFTFNISLLSDDIKRSDFMDNIVKFGGLINNQDYNHLLTVNTFIENENIKNVSTSNLMWLERALYTWK | not soluble
MAHHHHHHMKYTEITIDDGAYAKIFMHSIKYSCDDVCGILIGKYLSSNEKKKKCLITNYIPLFHTHILSPYLNLAFTLVENYYKDKDERIIGYFHISSDDSKNSDIENIKVCELISEKLIKNYNDAFVCLLEFSKYVNDEDNCLNIFMKNDKSNWEKGNVVISNKNKEFLKKNISNQHYLNIYDFDDHLNSMKCDFMNPDLFNNVS | not soluble
MAHHHHHHMLAAIQGFGTRVAARTAGQALRRGLGVVPLRRCCPFRCASSASLPSDVEVHQGSDDYRHSDDAFTLSTEVLGTAEEKATLDEDEFDELEAASQELHDLCYALIAHLRCADPEANKALFERRVQRAFREPKPEQYRRLLHGHGDRSLRRRNNYRTRKDFQEAHRLYLQWCDKLLLLLTQPVLDRLVKSAGKGHRDLRTDGVHRYRRPLERATWRSFPHRWFKHAPFEVQQLRADIPESAVLNTRFYRDHATLRYLFTLMEPQHAFREKIERRVMDLTQRYDPLRKSIE | not soluble
MAHHHHHHMLFRTIRHFDLRRPTLMELVRELRFRTEAPIADCCAALKEANENMDRALEVLRNKGLAKAVKKGSRVTEHGSVVACVGETFGAAIVTVCSETDFAARSLQFQRVCGTVMETLRTQIISTEGTALDDCAAVHRLLTDAAAEQIQATIAVLGENVTIKSIQPLRFAPHVAEHISIGAYTHGTLSVQNVGRVAGVVAVSRTDPSARVPEEKLVDVARHFVACSGAEGSYAHQNFFGTEETVGQWLKRHGLRFSSSLVVDFGKEPIIHTAPQPVAGTK | soluble
MAHHHHHHMLLKALKASFEANKRVYESVLLTFKGVDGYDVYNCSVPFSYKGKTHIYGRVEKRDIWAASHVRLFEETGKDEFTAVPELSWELEDPYIAKINNEMIFGGTRVRKNGNAILSYYGYFYRGTPVELNYFTTGPDYMKDIRVVPLQDGRLGVFSRVRTRAEVYVGFSTVDTIDHLTTEVIATAKAIDFIRPGTWGGVNQAYLLSSGKIGCIGHFAYNDTKPSGEPLMVYINISFVFDAETRQLDTEHVIGTKSCYPACPAKLPVLEDCVFASGIVMRSDGKCDLYSGLGDTHEGRITIDYPFHGYGNIVGQMIF | not soluble
MAHHHHHHMLNILSYSKLFSSCGRQAVTCPKGCNSYRHVSTGSDECLFTDGRASMGREFTLQPVEMEPVFKVHRPYSSSNCDNPISEDDLPYECGASSDCNTRSSTLRERAVCDEPLAKGLQNTTASTPYRVSWYERGAVSPSKRFVYWAFRRLWDLPPDAREYYRRMLYQEVRAARYVNQTWDCFMMVVDGYRKGKWILKKYGIKIDEGLIPKPYNNFWEETTHEERVWAHRRSHQMKDLQALQREDDNLVFGAHIMDRREVTYGSVKNLQTGMQGGTPVHAHDLPAPFEADVKMSLHEEDISSALMSSIEDDKLWNPVLRSRVHNKLARDEAELYGFEDEDDGDDRS | not soluble
MAHHHHHHMLRGVTIKCGNVTNAVRVPSRFISMAPTRNEEKATQKRNKWEYILSLDEALYLSKEMGIKTTTEVQKIVMRSPPFSPDMSPFLIDNFLCSANRGSHSDEIAQIDQKLKALEERGDNSQESEKGEVQVALHNNEMNDTAQNREEDIINKILIDKFNKKRGKTFIHNDMEWLEESEGIGTNKRSSAYVYIKRGSGIVKVNDEEDLYIRWPYFYNRMDVLEPFYVTNTACVFDVFIKLKGGGISGQSKAARLAVGRALLNACPLIYDELKQHHILYEDMRQKLPKMPGRKKSRAMKQWSKR | not soluble
MAHHHHHHMLTKDADCEKSQQQKLEEDIKSPCTPSFHWVSDEDPKSDRATNHGCAKPLDWSPQTPETPPMSVAELRVTTVADTSETETTSESATHGNELRANEGESSASGTLEKPAGGVAAAGGAAPAAVPQKTEERGSSVPLKHKRSYGASDAVSSSSCHVDALGDLAGSVRQHHPTSTHTLDTSSSNGVGDAAKHAVAAGHVDESLPPPLSGVFFPFTACDAVTTASLVTLISSYCDVLTLVQLMRVNRSAHLLATSDAVWKPLLVSMNLPPLLAAYERDNDYYDFFVKDIITTRALHGHYTFQAANAASGSRESVSTTSGSRSAVMNRNYVSRDEDSLQDDIFNIASLQLLISAASLGQSNHLIGRVQLLITYKNESMEVLQGSCRFSVHRRCFSLCCSAFGTVKRGPVFTVAVATVTKPWANEGFQHFREHKNGIRLVMAPVLWEGPSPGSQITENDILVVSRPKPVPSLITSTTGSAAANSSLGAPTASRG | not soluble
MAHHHHHHMLYSSIRYGRNCTGTNETVKPLGPCVTPLGTILGVFNGVFGYSNCNDSYVSTELRYINLTVPELNNETGQLTYISKQFYTGLAWQCVEYARRYWMQRGTPQPAYFDSVLGAADVWNLTFVRLLSNASITLPLRRYWNGDRVTDNHQIPAIGDIIIYPVQDGGFPYGHVAVIANVELSTHGAIYVAEQNWANAVWSSPHHNYTRRIPMFYDMLTSTITLDDSEHQIIGWMRYG | not soluble
MAHHHHHHMMQPHSQTRAFYCCDDEDKEGTDELLGELLFGADGRRGTDLSSTRCPPPAAPPASLDIAAPASAAATGSGAELPRLRYSRPPPHLTQTTLDLGHAEPTMATRCLLCRMLYSPENDEDAALHRRFCRGGRLRRRDRGPYDAPSSFTGACRSRRARTETAASPLASLSSPAAVAVHMLEELNGAGLGHSPSPLVANTTATVRRGGPRRRESGARGVAKATYTATDTLNTAADATVSLCTCVLRPRSSSSSSPHLSSPLAVFRISLNACGVADSKGGCTALRLLELLDFTPVVLRAAAERDVAPQTASSSVLCGNVPVVPSVRDSAASTVHVVCVVDTVLRLLLCAVVGEPRSREQDPELCVERRADGATVCSTRRNFTHGDVAGLWVLSPAELSAAQTAWEKSTAAPFASTRQALEVFFGTRAGGGAPSSAQSHAAHVTEKAHERCQQAAGVALHALAQYLVYGSSLCPSRQLSYSQAALAAAERMGAGFMEQCLAVASSCYLAGATPTPREDVGELQPLYIHGDSDDGGSDSDDANEDAKGVIGE | not soluble
MAHHHHHHMNAMYSADQIHVPPELGTIMKQYTKAVMRDKPTDLYKYSANFFAILSGYAAPFDSEGQLMENGVQEASSRSTVPISFGSEKEENAGSQDPTDILLRRYDRTGTGYMDPAELPQLLAELRMNLSLDEKDVVSAEDILAALPSACDQIDLLELRNLLLESMGD | soluble
MAHHHHHHMNKNFAQILEDFISDGSRKHRGHGDDGANEENVPHFINQDGSNLFNDDIGKKFEKKNFFKYTEYSLSSLYMSDNQIPLEEDPKFETFINVITKASDVNNEYKWVDDYFKFEVKEEMNILTPRSQDRDFLFRKYLQPNQLKNICLLRKYEQAAISKTPEKNKVDAKIVSEYIVHDSYRQIMKALNFKWSHRIFTKARIFHSKYGNSDHIVILVMRHYKDENFLHPLFHDRALVQIKSYLNDNKHADMTQKNLLNYTEVFKPYVSLRKVDSNFVEQIKDRYYGAF | soluble
